Test results published in patent publication US7329737 (DYAX, dated 2008).

T1: Human Tissue Kallikrein 8 (hK8) (human, UniProt O60259 33-260)
T1 sequence (looked up): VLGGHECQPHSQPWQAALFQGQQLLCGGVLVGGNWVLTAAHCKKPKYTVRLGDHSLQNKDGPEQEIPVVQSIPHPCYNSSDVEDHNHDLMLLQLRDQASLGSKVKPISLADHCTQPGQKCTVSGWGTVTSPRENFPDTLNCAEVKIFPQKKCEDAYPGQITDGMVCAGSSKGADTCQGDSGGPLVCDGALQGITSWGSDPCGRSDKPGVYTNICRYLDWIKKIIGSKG

T2: Human elastase (human, UniProt P08246 30-247)
T2 construct: also called Human Neutrophil Elastase
T2 sequence (looked up): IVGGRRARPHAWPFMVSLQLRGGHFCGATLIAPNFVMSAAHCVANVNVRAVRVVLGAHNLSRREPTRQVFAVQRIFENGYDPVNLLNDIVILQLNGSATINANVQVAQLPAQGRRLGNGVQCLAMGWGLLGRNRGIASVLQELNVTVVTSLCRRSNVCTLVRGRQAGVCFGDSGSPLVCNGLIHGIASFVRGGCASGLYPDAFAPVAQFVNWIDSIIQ

B1: M0093-F09 (Fab, V domains shown)
VH: EVQLLESGGGLVQPGGSLRLSCAASGFTFSDYRMWWVRQAPGKGLEWVSYIVPSGGQTSYADSVKGRFTISRDNSKNTLYLQMNSLRAEDTAVYYCARGSAYQRRTYSSGWYSASGRRGTAEYFQHWGQGTLVTVSS
VL: AQSALTQPASVSGSPGQSITISCTGTSTDDVGGYNYVSWYQQHPGKAPKLMIYDVINRPSGVSNRFSGSKSGNTASLTISGLQAEDEADYYCSSYTSRGTRVFGTGTKVTVLG
notes: also called M093-F09
B2: M0137-E01 (Fab, V domains shown)
VH: EVQLLESGGGLVQPGGSLRLSCAASGFTFSRYSMTWVRQAPGKGLEWVSSIYPSGGKTTYADSVKGRFTISRDNSKNTLYLQMNSLRAEDTAVYYCASMVAPYYYDSSGYPPAEYFQHWGQGTLVTVSS
VL: AQSELTQPPSASGTPGQRVTISCSGTNSNIGSNSVFWYQQLSGTAAPKVLILRNSQRPSGVSDRFSGSKSGTSASLAISGLRSEDEADYYCATWDDSLRSPVFGGGTKLTVLG
notes: also called M137-E01

Legend:
[1] = target: T3, hK1 (human tissue kallikrein 1), recombinant (human, UniProt P06870 25-262); experiment: SPR
T3 construct: Expressed in P. pastoris from KLK1 cDNA and purified; enzymatically active; also called KLK1; Recombinant (Pichia) Kallikrein

[2] = target: T3, hK1 (human tissue kallikrein 1), …; experiment: enzyme inhibition, tight-binding analysis, noncompetitive; Fab
[3] = target: Human Tissue Kallikrein 3 (hK3, PSA) (human, UniProt P07288 25-261); experiment: protease inhibition assay, Fab up to 1 µM;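 also: protease and Fab preincubated 1 h at room temperature, then substrate added, fluorescence plate-reader monitoring of substrate hydrolysis rate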
Human Tissue Kallikrein 3 (hK3, PSA), sequence (P07288 25-261 limits assumed): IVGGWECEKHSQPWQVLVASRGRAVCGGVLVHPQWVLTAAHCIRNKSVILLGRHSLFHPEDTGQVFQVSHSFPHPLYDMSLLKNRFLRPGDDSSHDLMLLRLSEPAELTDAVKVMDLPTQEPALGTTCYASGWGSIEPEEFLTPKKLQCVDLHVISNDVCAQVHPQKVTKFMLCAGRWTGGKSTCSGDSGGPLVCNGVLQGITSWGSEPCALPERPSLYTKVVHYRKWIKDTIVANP
Procedure: (§1) Selected antibodies were tested for their ability to inhibit other proteases.
(§2) Assays were performed in black, 96 well, round bottomed microplates in a total volume of 100 μL. Enzyme and Fab inhibitor were incubated in the dark at room temperature for 1 hour prior to the addition of the indicated amount of substrate. The rate of enzymatic substrate hydrolysis was then monitored using the Spectramax Gemini XS fluorescence plate reader using the wavelengths listed in Table 3.

[4] = target: Human chymotrypsin (human, UniProt P17538 19-263); experiment: protease inhibition assay, Fab up to 1 µM;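 also: protease and Fab preincubated 1 h at room temperature, then substrate added, fluorescence plate-reader monitoring of substrate hydrolysis rate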
Human chymotrypsin, sequence (P17538 19-263): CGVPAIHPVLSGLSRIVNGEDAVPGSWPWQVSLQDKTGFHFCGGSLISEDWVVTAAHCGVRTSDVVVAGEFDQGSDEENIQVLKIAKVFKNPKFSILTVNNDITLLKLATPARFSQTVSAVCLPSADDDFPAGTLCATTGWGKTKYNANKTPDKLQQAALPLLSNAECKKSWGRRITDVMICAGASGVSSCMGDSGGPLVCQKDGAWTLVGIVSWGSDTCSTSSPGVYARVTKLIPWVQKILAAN
Procedure: as §1, §2

[5] = target: Human Tissue Kallikrein 2 (hK2) (human, UniProt P20151 25-261); experiment: protease inhibition assay, Fab up to 1 µM;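 also: protease and Fab preincubated 1 h at room temperature, then substrate added, fluorescence plate-reader monitoring of substrate hydrolysis rate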
Human Tissue Kallikrein 2 (hK2), sequence (P20151 25-261 limits assumed): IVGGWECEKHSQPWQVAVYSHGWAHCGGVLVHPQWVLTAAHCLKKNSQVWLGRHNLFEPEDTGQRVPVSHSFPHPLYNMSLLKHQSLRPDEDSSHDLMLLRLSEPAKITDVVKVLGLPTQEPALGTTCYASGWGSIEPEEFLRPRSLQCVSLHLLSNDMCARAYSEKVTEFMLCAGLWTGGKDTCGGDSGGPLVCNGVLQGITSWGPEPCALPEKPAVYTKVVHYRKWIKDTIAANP
Procedure: as §1, §2

[6] = target: Human Tissue Kallikrein 5 (hK5) (human, UniProt Q9Y337 67-293, limits assumed); experiment: protease inhibition assay, Fab up to 1 µM;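 also: protease and Fab preincubated 1 h at room temperature, then substrate added, fluorescence plate-reader monitoring of substrate hydrolysis rate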
Human Tissue Kallikrein 5 (hK5), sequence (Q9Y337 67-293 limits assumed): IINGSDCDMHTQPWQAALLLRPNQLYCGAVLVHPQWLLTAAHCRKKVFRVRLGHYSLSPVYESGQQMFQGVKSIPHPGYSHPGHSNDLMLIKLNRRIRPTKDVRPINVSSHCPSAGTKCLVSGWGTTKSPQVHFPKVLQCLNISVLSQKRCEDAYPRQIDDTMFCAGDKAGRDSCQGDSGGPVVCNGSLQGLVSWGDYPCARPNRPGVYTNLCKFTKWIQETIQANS
Procedure: as §1, §2

[7] = target: Human thrombin (human, UniProt P00734 328-622); experiment: protease inhibition assay, Fab up to 1 µM
Procedure: as §1, §2

[8] = target: T4, Human trypsin (human, UniProt P07477 24-247); experiment: protease inhibition assay, Fab up to 1 µM
T4 construct: also called Human Pancreatic Trypsin
Procedure: as §1, §2

[9] = target: T1, Human Tissue Kallikrein 8 (hK8); experiment: protease inhibition assay, Fab up to 1 µM
Procedure: as §1, §2

[10] = target: Human plasma kallikrein (human, UniProt P03952 20-638); experiment: protease inhibition assay, Fab up to 1 µM
Human plasma kallikrein, sequence (P03952 20-638 limits assumed): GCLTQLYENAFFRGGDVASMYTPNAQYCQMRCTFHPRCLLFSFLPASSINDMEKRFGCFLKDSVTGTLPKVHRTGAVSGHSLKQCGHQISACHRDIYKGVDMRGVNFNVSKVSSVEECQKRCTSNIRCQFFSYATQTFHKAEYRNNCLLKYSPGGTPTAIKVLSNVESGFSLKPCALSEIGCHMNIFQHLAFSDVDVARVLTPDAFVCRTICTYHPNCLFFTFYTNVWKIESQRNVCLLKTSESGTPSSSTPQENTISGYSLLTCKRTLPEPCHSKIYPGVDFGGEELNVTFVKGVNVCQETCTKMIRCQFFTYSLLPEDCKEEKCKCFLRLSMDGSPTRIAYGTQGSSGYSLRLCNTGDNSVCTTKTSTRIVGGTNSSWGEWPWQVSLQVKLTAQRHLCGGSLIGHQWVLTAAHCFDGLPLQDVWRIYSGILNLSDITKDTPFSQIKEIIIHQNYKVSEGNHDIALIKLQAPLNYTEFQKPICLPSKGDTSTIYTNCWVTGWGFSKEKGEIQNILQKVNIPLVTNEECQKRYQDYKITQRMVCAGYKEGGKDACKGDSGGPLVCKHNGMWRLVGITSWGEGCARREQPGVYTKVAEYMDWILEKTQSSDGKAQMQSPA
Procedure: as §1, §2

[11] = target: T2, Human elastase; experiment: protease inhibition assay, Fab up to 1 µM
Procedure: as §1, §2

[12] = target: Human urokinase (human, UniProt P00749 21-431, limits assumed); experiment: protease inhibition assay, Fab up to 1 µM
Procedure: as §1, §2

[13] = target: Human Tissue Kallikrein 4 (hK4) (human, UniProt Q9Y5K2 31-254); experiment: protease inhibition assay, Fab up to 1 µM
Human Tissue Kallikrein 4 (hK4), sequence (Q9Y5K2 31-254 limits assumed): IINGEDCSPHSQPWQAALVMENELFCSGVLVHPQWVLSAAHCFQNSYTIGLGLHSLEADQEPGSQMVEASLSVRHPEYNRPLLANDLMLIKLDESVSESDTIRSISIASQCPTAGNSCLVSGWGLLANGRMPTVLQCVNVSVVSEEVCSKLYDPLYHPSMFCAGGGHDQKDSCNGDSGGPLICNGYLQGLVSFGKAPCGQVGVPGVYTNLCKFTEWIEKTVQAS
Procedure: as §1, §2

[14] = target: Human plasmin (human, UniProt P00747 97-810); experiment: protease inhibition assay, Fab up to 1 µM
Human plasmin, sequence (P00747 97-810 limits assumed): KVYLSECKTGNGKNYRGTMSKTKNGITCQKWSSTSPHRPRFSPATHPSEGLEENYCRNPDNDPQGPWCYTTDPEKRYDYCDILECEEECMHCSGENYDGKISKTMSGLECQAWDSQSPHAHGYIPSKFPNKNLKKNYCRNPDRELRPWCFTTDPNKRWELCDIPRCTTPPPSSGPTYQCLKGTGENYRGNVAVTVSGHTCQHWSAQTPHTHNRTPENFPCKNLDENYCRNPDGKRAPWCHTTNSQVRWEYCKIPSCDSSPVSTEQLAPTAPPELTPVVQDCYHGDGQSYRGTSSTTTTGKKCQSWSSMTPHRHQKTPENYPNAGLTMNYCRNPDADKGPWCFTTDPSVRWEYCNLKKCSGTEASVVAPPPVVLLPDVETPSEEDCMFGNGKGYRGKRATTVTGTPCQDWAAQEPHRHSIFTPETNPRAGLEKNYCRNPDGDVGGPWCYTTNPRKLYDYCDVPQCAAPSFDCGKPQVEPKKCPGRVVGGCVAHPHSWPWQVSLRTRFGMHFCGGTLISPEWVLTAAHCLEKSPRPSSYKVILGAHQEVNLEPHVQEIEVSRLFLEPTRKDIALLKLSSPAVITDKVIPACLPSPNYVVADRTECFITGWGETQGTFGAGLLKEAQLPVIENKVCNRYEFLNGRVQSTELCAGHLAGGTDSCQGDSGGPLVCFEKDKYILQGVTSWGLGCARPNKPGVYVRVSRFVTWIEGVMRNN
Procedure: as §1, §2

[15] = target: T3, hK1 (human tissue kallikrein 1), …; experiment: SPR, biotinylated hK1 on streptavidin chip; Fab 50 nM after DX-2300 50 nM (competitor DX-2300)
Source text: Epitope grouping by SPR. Biotinylated hK1 was captured on a streptavidin coated chip to a final ligand density of 88 RU. […] The signal at the end of the injection of the Fab alone is R2.

[16] = target: T3, hK1 (human tissue kallikrein 1), …; experiment: cell-based or functional assay
[17] = target: Human activated protein kinase C (human); experiment: protease inhibition assay, Fab up to 1 µM
Human activated protein kinase C (human), sequence (P04070 43-197, chain 1 of 2): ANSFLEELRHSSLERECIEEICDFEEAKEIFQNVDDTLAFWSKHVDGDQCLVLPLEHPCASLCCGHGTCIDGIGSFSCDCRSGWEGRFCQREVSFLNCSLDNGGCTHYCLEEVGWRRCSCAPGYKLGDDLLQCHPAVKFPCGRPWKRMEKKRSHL
Human activated protein kinase C (human), sequence (P04070 212-461, chain 2 of 2): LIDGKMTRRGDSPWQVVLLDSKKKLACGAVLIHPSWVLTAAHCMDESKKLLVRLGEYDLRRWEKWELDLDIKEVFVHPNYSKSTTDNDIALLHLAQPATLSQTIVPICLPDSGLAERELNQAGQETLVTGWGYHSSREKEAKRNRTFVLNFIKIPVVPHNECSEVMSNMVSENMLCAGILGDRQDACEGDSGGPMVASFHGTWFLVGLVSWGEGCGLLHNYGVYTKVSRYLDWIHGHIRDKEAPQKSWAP
Procedure: as §1, §2

[18] = target: T3, hK1 (human tissue kallikrein 1), …; experiment: enzyme inhibition, tight-binding analysis, competitive; Fab

Row | Binder | Kd [1] [nM] | koff [1] [s⁻¹] | kon [1] [M⁻¹ s⁻¹] | Ki [2] [nM] | Ki [3] [nM] | Ki [4] [nM] | Ki [5] [nM] | Ki [6] [nM] | Ki [7] [nM] | Ki [8] [nM] | Ki [9] [nM] | Ki [10] [nM] | Ki [11] [nM] | Ki [12] [nM] | Ki [13] [nM] | Ki [14] [nM] | Fab Signal following DX-2300 (R1) [15] | IC50 (nM), inhibition of hK1 hydrolysis of Pro-Phe-Arg-AMC [16] [nM] | Ki [17] [nM] | Ki [18] [nM]
1 | B1 | 4.66 | 0.00279 | 600000 | 1.9 | > 1000 | > 1000 | > 1000 | > 1000 | > 1000 | > 1000 | > 1000 | > 1000 | > 1000 | > 1000 | > 1000 | > 1000 | 5.9 | 2.5 | – | –
2 | B2 | 1.29 | 0.000158 | 123000 | – | > 1000 | > 1000 | > 1000 | > 1000 | > 1000 | > 1000 | > 1000 | > 1000 | > 1000 | > 1000 | > 1000 | > 1000 | 20.8 | 0.4 | > 1000 | 0.9
